Data reported in patent US20140120109A1 (Regeneron, published 2014).
Numbering of substitutions follows the chain as printed. One block for each binder: values may come before it.

What was measured:
[1] = target: T1, human TL1A, soluble, CHO-expressed, residues 72-251 of SEQ ID NO:244 with N-terminal His6-tag (human, UniProt O95150 72-251); test: ELISA, blocks hTL1A (150 pM) binding hDR3-Fc
T1 construct: also called hTL1A; hTL1A (CHO)
T1 sequence: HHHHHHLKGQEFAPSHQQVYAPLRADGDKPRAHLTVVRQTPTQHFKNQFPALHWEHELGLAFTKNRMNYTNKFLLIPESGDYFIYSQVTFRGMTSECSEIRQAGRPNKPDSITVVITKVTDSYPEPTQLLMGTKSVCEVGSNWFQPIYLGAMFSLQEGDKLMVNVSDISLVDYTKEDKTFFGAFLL
Description: (§1) The ability of antibodies to block human TL1A binding to its cognate receptors, the DR3 and DcR3 receptors, was measured using a competition sandwich ELISA. In addition, blocking of a human TL1A variant FHM (human TL1A Q167R) and the cynomolgus monkey (Macaca fascicularis) TL1A (MfTL1A) protein binding to the human DR3 or DcR3 receptors was measured in the same manner. Constant amounts of biotinylated human TL1A or FHM (both expressed with a 6-His tag in CHO cells) or biotinylated MfTL1A (expressed in CHO cells) were separately titrated with varying amounts of antibodies. The antibody-protein complexes were incubated in solution (1 hr, 25° C.) and then transferred to microtiter plates coated with human DR3 (hDR3) or human DcR3 (hDcR3) expressed as human IgG1 Fc fusion proteins. After one hour at 25° C. the wells were washed, and bound human or monkey TL1A was detected with streptavidin conjugated with horseradish peroxidase (HRP). Wells were developed with a TMB solution to produce a colorimetric reaction and quenched with aqueous sulfuric acid before reading absorbance at 450 nm on a Perkin-Elmer Victor X5 plate reader. A sigmoidal dose-response curve was fit to the data using the Prism™ data analysis package. […] Both fully human anti-hTL1A mAbs and comparator antibodies, i.e., control mAb1 (an anti-hTL1A antibody with heavy and light chain variable domains having the amino acid sequences corresponding to SEQ ID NOS:21 and 27, respectively, of US 2009/0280116) and control mAb3 (an anti-hTL1A antibody with heavy and light chain variable domains having the amino acid sequences corresponding to SEQ ID NOS:57 and 48, respectively, of US 2009/0280116), were included in the study. NB: No binding under the conditions tested; NT: Not tested. Concentrations of biotinylated soluble ligands: (1) 150 pM; (2) 500 pM; (3) 10 pM; and (4) 50 pM.

[2] = target: T2, cynomolgus monkey TL1A, soluble, CHO-expressed, residues 72-251 of SEQ ID NO:248 with N-terminal His6-tag (cynomolgus monkey (Macaca fascicularis), UniProt O95150 72-251 (human entry)); test: ELISA, blocks MfTL1A (50 pM) binding hDcR3-Fc
T2 construct: also called MfTL1A; MfTL1A (CHO)
T2 chain: T1 sequence with F45L, I84V
Description: as §1

[3] = target: T3, Fhm, hTL1A(Q167R), soluble, CHO-expressed, residues 72-251 of SEQ ID NO:246 (human, UniProt O95150 72-251); test: ELISA, blocks FHM (150 pM) binding hDR3-Fc; blocking of FHM binding to hDR3
T3 construct: also called Fhm (CHO); FHM (CHO)
T3 chain: T1 sequence with Q102R
Description: as §1

[4] = target: T4, cynomolgus monkey TL1A, soluble, E. coli-expressed, residues 72-251 of SEQ ID NO:248 (cynomolgus monkey (Macaca fascicularis), UniProt O95150 72-251 (human entry)); test: SPR 37C, mAb captured
T4 construct: with or without N-terminal Met; also called MfTL1A (E. Coli)
T4 chain: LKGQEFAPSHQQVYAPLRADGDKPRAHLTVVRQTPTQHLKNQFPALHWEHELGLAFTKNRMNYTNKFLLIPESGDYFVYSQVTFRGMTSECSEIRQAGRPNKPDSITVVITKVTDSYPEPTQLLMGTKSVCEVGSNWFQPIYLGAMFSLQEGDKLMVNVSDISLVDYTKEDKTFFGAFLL
Description: (§2) Measurements were conducted on a T100 BIACORE™ instrument. […] Kinetic association (kₐ) and dissociation (kd) rate constants were determined by fitting the data to a 1:1 binding model using BIAevaluation 4.1 curve fitting software (BIAcore Life Sciences). Molar concentrations of TL1A/Fhm used in the data fitting assumed a monomeric state for TL1A in solution. Binding dissociation equilibrium constants (KD) and dissociative half-lives (t_{1/2}) were calculated from the kinetic rate constants as: KD (M)=kd/kₐ; and t_{1/2} (min)=[In2/(60*kd)].

[5] = target: T5, Fhm, hTL1A(Q167R), soluble, E. coli-expressed, residues 72-251 of SEQ ID NO:246 (human, UniProt O95150 72-251); test: SPR 25C, mAb captured
T5 construct: with or without N-terminal Met
T5 chain: T4 chain with L39F, V78I, Q96R
Description: as §2

[6] = target: T4, cynomolgus monkey TL1A, soluble, E. …; test: SPR 25C, mAb captured
Description: as §2

[7] = target: T1, human TL1A, soluble, CHO-expressed, …; test: ELISA, blocks hTL1A (10 pM) binding hDcR3-Fc
Description: as §1

[8] = target: T2, cynomolgus monkey TL1A, soluble, …; test: ELISA, blocks MfTL1A (500 pM) binding hDR3-Fc
Description: as §1

[9] = target: T6, mouse TL1A, soluble, E. coli-expressed, residues 76-252 of SEQ ID NO:250 (mouse, UniProt Q5UBV8 76-252); test: SPR 25C, steady state
T6 construct: with or without N-terminal Met; also called mTL1A (E. Coli)
T6 sequence: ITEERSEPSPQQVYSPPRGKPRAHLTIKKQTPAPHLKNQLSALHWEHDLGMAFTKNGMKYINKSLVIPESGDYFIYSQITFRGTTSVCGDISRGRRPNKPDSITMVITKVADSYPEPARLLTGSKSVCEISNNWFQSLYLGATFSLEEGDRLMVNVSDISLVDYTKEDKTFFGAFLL
Description: as §2, with “Binding dissociation equilibrium constants (KD) and dissociative half-lives (t_{1/2}) were calculated from the kinetic rate constants as: KD (M)=kd/kₐ; and t_{1/2} (min)=[In2/(60*kd)].” left out

[10] = target: T7, mouse DR3, full-length, expressed on HEK293 NFkB-luciferase reporter cells (mouse); test: cell-based or functional assay
T7 chain: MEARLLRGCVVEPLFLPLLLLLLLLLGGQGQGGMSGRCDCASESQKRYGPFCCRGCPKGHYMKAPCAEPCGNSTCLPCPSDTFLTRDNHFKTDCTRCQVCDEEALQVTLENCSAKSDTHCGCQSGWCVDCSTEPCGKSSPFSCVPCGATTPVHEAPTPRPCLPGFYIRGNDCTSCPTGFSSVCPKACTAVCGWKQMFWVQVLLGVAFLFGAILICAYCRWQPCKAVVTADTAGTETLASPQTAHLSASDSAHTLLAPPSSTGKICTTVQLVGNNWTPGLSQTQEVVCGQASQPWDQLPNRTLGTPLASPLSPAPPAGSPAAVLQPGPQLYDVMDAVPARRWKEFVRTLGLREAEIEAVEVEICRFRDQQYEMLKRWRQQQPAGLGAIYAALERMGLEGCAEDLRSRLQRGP

IC50 [1]: 154 pM | IC50 [2]: 55 pM | IC50 [3]: 317 pM | Kd [4]: 4100 pM | t1/2 [4]: 3 min | Kd [5]: 1080 pM | t1/2 [5]: 17 min | Kd [6]: 1840 pM | t1/2 [6]: 10 min | IC50 [7]: 396 pM | IC50 [8]: 239 pM | Kd [9]: 171000 pM
B1: H2M1818N (antibody, V domains shown)
VH: RLQLVESGGGLVKPGGSLKLSCAASGFTISDYYMSWIRQAPGKGLEWVSYIGGSGSTIYYADSVKGRFTISRDNAKNSLYLQMNSLRAEDTAVYYCAREDADSYYYYGMDVWGQGTTVTVSS
VL: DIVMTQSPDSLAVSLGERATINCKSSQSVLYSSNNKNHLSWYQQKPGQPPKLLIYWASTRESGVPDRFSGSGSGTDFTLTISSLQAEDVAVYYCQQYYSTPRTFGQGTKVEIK
notes: chimeric hybridoma antibody: human variable regions, mouse constant regions (mouse Fc)

EC50 (cells), NFkB-luciferase reporter [10]: 9770 cells
B2: full length rat TL1A expressed on HEK293 cells (ligand)
chain: MAEELGLGFGEAVPVEMLPEGCRHRREARTGLAARSKACLALTCCLLSFPILAGLSTLLMTGQLRIPGKDCMFPTVTEERSAPSAQPVYTPSRDKPKAHLTIMRQTPVPHLKNELAALHWENNLGMAFTKNRMNYTNKFLVIPESGDYFIYSQITFRGTTSECGDISRVRRPKKPDSITVVITKVADSYPEPAHLLTGTKSVCEISSNWFQPIYLGAMFSLEEGDRLMVNVSDISLVDYTKEDKTFFGAFLI

EC50 (cells), NFkB-luciferase reporter [10]: 12400 cells
B3: full length mouse TL1A expressed on HEK293 cells (ligand)
chain: MAEELGLGFGEGVPVEVLPEGCRHRPEARAGLAARSKACLALTCCLLSFPILAGLSTLLMAGQLRVPGKDCMLRAITEERSEPSPQQVYSPPRGKPRAHLTIKKQTPAPHLKNQLSALHWEHDLGMAFTKNGMKYINKSLVIPESGDYFIYSQITFRGTTSVCGDISRGRRPNKPDSITMVITKVADSYPEPARLLTGSKSVCEISNNWFQSLYLGATFSLEEGDRLMVNVSDISLVDYTKEDKTFFGAFLL
